# Measurements as given in article PMC5564291 (Cell, 2016).
# Assays:
# Test in all cases: ITC
# [1] = molecular target: PSD-95 PDZ3 (aa R306–E398) (human) (UniProt P78352)
# [2] = molecular target: PSD-95 PDZ3-C (aa R306-S412) (human) (UniProt P78352)
# [3] = molecular target: PSD-95 PSG WT (aa R306-L721) (human, UniProt P78352-3 306-721)
Molecule,Kd [1] [µM],fold higher affinity than PDZ3 [2] [fold],binding result [3]
N-terminal thioredoxin-tagged last 30 residues of SynGAP (SynGAP PBM) (domain or fragment),27,15,–
"SynGAP CC-PBM L-D&K-D mutant (L1202D and K1252D) (domain or fragment, mouse, UniProt J3QQ18 1147-1308, looked up) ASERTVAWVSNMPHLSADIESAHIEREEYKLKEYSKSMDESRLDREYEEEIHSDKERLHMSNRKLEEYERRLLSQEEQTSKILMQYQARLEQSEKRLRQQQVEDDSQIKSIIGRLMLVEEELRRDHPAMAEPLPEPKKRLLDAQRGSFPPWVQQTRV",–,–,binds
